Experiments:
[1] = substrate: Nc1ccn([C@H]2C[C@H](O)[C@@H](CO)O2)c(=O)n1; experiment: purified protein; conditions: zinc active site
[2] = substrate: Nc1ncn([C@H]2C[C@H](O)[C@@H](CO)O2)c(=O)n1; experiment: purified protein; type: biochemical, Homo sapiens; conditions: zinc active site

B1: human cytidine deaminase (CDA) (Homo sapiens; Y33G) (protein)
chain: MAQKRPACTLKPECVQQLLVCSQEAKKSAYCPGSHFPVGAALLTQEGRIFKGCNIENACYPLGICAERTAIQKAVSEGYKDFRAIAIASDMQDDFISPCGACRQVMREFGTNWPVYMTKPDGTYIVMTVQELLPSSFGPEDLQKTQ
Km [1]: 47.6 µM
Vmax [1]: 0.127 µmol/min/mg
Km [2]: 349.0 µM
Vmax [2]: 0.174 µmol/min/mg

Reference: article PMC3020594
